In US6528098B2, “Preparation of a therapeutic composition” (Advanced Viral Research Corp., priority 1996, dated 2003):
Entries after “also recorded” stand apart in the source; their conditions may differ. No end group written: not given here.

What was measured:
proteinase K = target: T1, proteinase K (Parengyodontium album, UniProt P06873); assay: Treatment of Product R with proteinase K, SDS-PAGE on a 16% gel, silver stain; format: physicochemical; design: key to Sensitivity of the Peptide Components of Product R (SDS-PAGE): Proteinase K (100 μg/ml) / Sensitivity of the Peptide Components of Product R (SDS-PAGE): Proteinase K (800 μg/ml): “−” represents no substantial alteration of the stainable bands; “+” represents substantial alteration of the stainable bands; conditions: for Sensitivity of the Peptide Components of Product R (SDS-PAGE): Proteinase K (800 μg/ml) / change of silver stained bands after proteinase K treatment: 800 μg/ml proteinase K, one hour
T1 construct: purchased ICN Biochemicals
T1 sequence (P06873 106-384): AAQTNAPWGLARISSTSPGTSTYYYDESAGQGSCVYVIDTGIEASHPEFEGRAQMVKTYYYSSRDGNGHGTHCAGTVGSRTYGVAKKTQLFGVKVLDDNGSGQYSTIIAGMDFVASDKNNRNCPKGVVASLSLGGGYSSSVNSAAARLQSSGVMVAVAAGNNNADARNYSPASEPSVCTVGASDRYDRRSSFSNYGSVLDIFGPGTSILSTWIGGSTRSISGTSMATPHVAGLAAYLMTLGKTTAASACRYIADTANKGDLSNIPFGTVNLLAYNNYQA
Experimental: (§1) The biochemical properties of the peptides: Some biochemical properties of the silverstainable peptide components of Product R are analyzed using various catabolic enzymes, as described below:
The treatment with proteinase K (ICN Biochemicals): Proteinase K is a non-specific broad spectrum protease that cleaves peptide bonds at the C-terminal of aliphatic, aromatic and hydrophobic amino acids. It may cleave all serum peptides completely at 50 μg/ml within one hour. […]
(§2) A summary of the above described treatments by catabolic enzymes is provided in the following TABLE III, and the results of the treatment are shown in FIG. 5, wherein “−” represents no substantial alteration of the stainable bands and “+” represents substantial alteration of the stainable bands.

trypsin = target: T2, trypsin (Bos taurus, UniProt P00760); assay: Treatment of Product R with trypsin, SDS-PAGE on a 16% gel; format: physicochemical; design: key: “−” represents no substantial alteration of the stainable bands; “+” represents substantial alteration of the stainable bands; conditions: 250 μg/ml trypsin, 25° C., 19 hours
T2 construct: purchased Boehringer Mannheim USA
T2 sequence (P00760 24-246): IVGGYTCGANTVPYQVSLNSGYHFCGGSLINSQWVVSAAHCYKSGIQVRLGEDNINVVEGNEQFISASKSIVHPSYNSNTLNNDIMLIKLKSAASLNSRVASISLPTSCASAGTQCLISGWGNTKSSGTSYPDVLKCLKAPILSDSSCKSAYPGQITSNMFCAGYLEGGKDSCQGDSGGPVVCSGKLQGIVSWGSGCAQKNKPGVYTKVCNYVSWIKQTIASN
Experimental: as §1
The treatment with trypsin (Boehringer Mannheim USA): Trypsin is a serine protease, which specifically cleaves peptide bonds of lysine and arginine at the C-terminal at pH 7.5-9.0. A Product R sample is incubated in a reaction buffer having 100 mM Tris-HCl, pH 8.0, 0.1% SDS and 250 μg/ml of sequencing grade trypsin at 25° C. for 19 hours and then subject to SDS-PAGE on a 16% gel. While serum proteins will be broken down to peptides smaller than 4.3 KDa under such reaction conditions, none of the silver stained components of Product R are affected by trypsin.
as §2

[1] = tested on: IL-8 secretion by U937 cells; assay: IL-8 secretion by cultured U937 cells, ELISA; format: cell-based, human; conditions: for production of interlukin-8 (IL-8) in U937 cells: general statement; for up-regulation of IL-8 secretion compared with Product R: peptide solutions 2 mg/ml, equimolar mixture 4 mg/ml, final concentration 10% in culture media, FIG. 20
Experimental: Ammonium sulfate precipitation of Product U peptides: Product U samples are lyophilized and re-dissolved in 20% of original sample volume in water (5X concentrated). Ammonium sulfate crystals are added to the solution to reach 60% ammonium sulfate saturation (390 mg/ml solution). Gentle mixing solubilizes crystals. Protein precipitates appear after 30 mm to 1 hr incubation on ice and is centrifuged at 16,000×g for 30 min. at […]. The pellet is dissolved in 5% of original sample volume in water. The solution is desalted by gel filtration chromatography through a column of BioGel P-2. The column is eluted with 0.1X phosphate buffered saline (PBS). Only protein containing fractions are pooled and lyophilized.
Separation and isolation of two major neptide of Product R by gel ruhranon chromatography: A BioGel P-10 column (1.6 cm×52 cm) was equilibrated with 0.1X concentration of PBS. Two ml of 2X concentrated Product R was applied to the column, which was eluted with the same buffer at a flow rate of 25 mI/hr. Four mm. fractions were collected. All protein-containing fractions are analyzed by Sodium dodecyl sulfate polyacrilamide gel electrophoresis (SDS-PAGE). Fraction, containing primarily peptide A and peptide B are pooled separately and lyophilized. Peptide A pool contains very little contamination of the other peptide, however, the peptide B pool is highly enriched but still contains peptide A as a major contaminant. A reasonable estimate of peptide purity in the pools is >90% for peptide A and >75% for peptide B.
U937 cell culture: The U937 human hystiocytic lymphoma cell line was purchased from the American Type Culture Collection. Cells were thawed and maintained in logarithmic growth (5-9×10^5 cells/mL) in RPMI 1640 culture medium, supplemented with 10% fetal bovine serum, heat inactivated at 56° C. for 30 min, 2mM L-glutamine and 1x Penicillin-Streptomycin.
Product R or isolated peptide treatment: Cells (1.0×10^5/ml) are cultured in growth medium containing Product R, isolated purified peptide solution, mixed peptides solution or Dulbecco's PBS for 2 days. Following centrifugation, the culture supernatants are analyzed using chemokine ELISA kits. Final concentration of Product R in the culture medium was 10% (v/v). The ammonium sulfate precipitated peptides were reconstituted in culture medium to yield a 10 mg/ml solution. Two 2-fold dilutions were prepared, also using culture medium as diluent. These solutions were used at a final concentration of 10% in the U937 cell culture. The individual lyophilized peptides were reconstituted in endotoxin-free water to yield 2 mg/ml solutions (which is the approximate concentration of each peptide in Product R). An equimolar mixture of both peptides was prepared at a final concentration of 4 mg/ml. Both were used at a final concentration of 10% in the culture media for the assays.
Measurement of secreted IL-8 and MCP-1: The concentrations of IL-8 and MCP-1 in the culture supernatants are assayed by ELISA, using human IL-S ELISA kits (Endogen. Inc.) and Quantikine human MCP-1 ELISA kits (R&D Systems, Inc.), respectively, according to manufacturer's instructions (with slight modifications for the MCP-1 ELISA). […] Absorbances are measured on a PowerWave 200 Microplate Scanning Spectrophotometer. Dilutions of the standard protein supplied by each manufacturer are utilized to generate a four-parameter logistic fit standard curve, and the concentration of chemokine in each supernatant is determined by extrapolation.

pronase from S. griseus = assay: Treatment of Product R with pronase, SDS-PAGE on a 16% gel; format: physicochemical; design: key: “−” represents no substantial alteration of the stainable bands; “+” represents substantial alteration of the stainable bands; conditions: 2 mg/ml pronase, 40° C., 75 minutes
Experimental: as §1
The treatment with pronase (Boehringer Mannlheim. USA): Pronase is a non-specific protease, acts on both native and denatured proteins. It breaks down virtually all proteins into their individual amino acids. The preparation contains various types of endo-peptidases such as srine and metalloproteases, exo-peptidases such as carboypepsidases, neutral protease and neutral and alkaline phosphatases. A Product R sample is incubated in a reaction buffer containing 100 mM Tris-HCl, pH 7.4; 10 mM CaCl2; 0.1% SDS and 2 mg/ml of pronase from S. griseus at 40° C. for 75 minutes and then subject to SDS-PAGE on a 16% gel. All silver stained components disappear after such treatment of pronase.
as §2

| Sequence | Sensitivity of the Peptide Components of Product R (SDS-PAGE): Proteinase K (100 μg/ml) (proteinase K; 100 μg/ml proteinase K, 40° C., 30 minutes) | Sensitivity of the Peptide Components of Product R (SDS-PAGE): Proteinase K (800 μg/ml) (proteinase K) | change of silver stained bands after proteinase K treatment (proteinase K) | Sensitivity of the Peptide Components of Product R (SDS-PAGE): Trypsin (250 μg/ml) (trypsin) | production of interlukin-8 (IL-8) in U937 cells [1] | up-regulation of IL-8 secretion compared with Product R ([1]; listed as Peptide B) | up-regulation of IL-8 secretion compared with Product R ([1]; listed as peptide-B) | Sensitivity of the Peptide Components of Product R (SDS-PAGE): Pronase (2 mg/ml) (pronase from S. griseus) | up-regulation of IL-8 secretion compared with Product R [1] |
| --- | --- | --- | --- | --- | --- | --- | --- | --- | --- |
| GEIPDAGGRIVDYYVGFSDSV (not fully specified (residue 18)) [Peptide-B, 21-amino acid peptide linked at serine 18 through a diphosphodiester group to the 3′-end of an adenylyl (3′-5′) adenosine moiety] | − | − | no obvious change | − | capable of inducing the production; also recorded: contributes more to the activity than peptide-A | maintained most of the ability of Product R to up-regulate IL-8 secretion | induces higher levels of secretion of IL-8 or MCP-1 than peptide-A | + |  |
| KVLPVPQKAVPYPQRDMPIQAFLLYQEPVLG [Peptide-A, 31-amino-acid long peptide derived from bovine beta-casein, constituent of Product R] |  | + | disappears | − | capable of inducing the production |  |  | + | only elicited a less response |
